The values that follow come from paper PMC10247727, “Stabilization of pre-existing neurotensin receptor conformational states by β-arrestin-1 and the biased allosteric modulator ML314” (Nature Communications, 2023).

This assay concerns the target T1, enNTS1ΔM4 (minimal methionine variant of the thermostabilized rat neurotensin receptor 1 variant enNTS1) (rat, N262^5.63R (stands in the printed letters) | K263^5.64R (stands in the printed …)).
T1 construct: residues left before the receptor after HRV 3C cleavage (so in the source); enNTS1ΔM4: rat neurotensin receptor 1 thermostabilized by directed evolution (enNTS1), four of the ten methionines removed; linker, C-terminal Avi-tag and the rest of the HRV 3C site, as printed (the Avi-tag is named under tags too); In DDM micelles; 13CεH3-methionine labelled or unlabelled; also called …
T1 chain: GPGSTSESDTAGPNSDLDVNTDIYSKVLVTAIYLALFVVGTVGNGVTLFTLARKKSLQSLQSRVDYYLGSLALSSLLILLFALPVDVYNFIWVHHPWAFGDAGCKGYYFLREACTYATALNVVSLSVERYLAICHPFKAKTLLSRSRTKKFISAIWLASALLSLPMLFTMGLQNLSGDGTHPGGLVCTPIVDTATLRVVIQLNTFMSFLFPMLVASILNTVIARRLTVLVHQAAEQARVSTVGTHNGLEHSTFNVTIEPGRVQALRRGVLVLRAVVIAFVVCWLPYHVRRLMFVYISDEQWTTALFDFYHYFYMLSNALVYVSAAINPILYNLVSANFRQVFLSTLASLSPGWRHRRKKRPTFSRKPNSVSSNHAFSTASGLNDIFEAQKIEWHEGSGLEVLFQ
Description: NMR (1H-13C HMQC spectra); 66 μM [13CεH3-methionine]-enNTS1ΔM4 with 500 μM ML314 (no NT8-13), 130 μM PIP2 and 2.3x molar equivalents βArr1-3A, 298 K. The conditions noted are these: both partners purified.

B1: βArr1-3A (pre-activated cysteine-free human β-arrestin-1, I386A/V387A/F388A), tags removed (natural protein)
chain: GPSGDKGTRVFKKASPNGKLTVYLGKRDFVDHIDLVDPVDGVVLVDPEYLKERRVYVTLTVAFRYGREDLDVLGLTFRKDLFVANVQSFPPAPEDKKPLTRLQERLIKKLGEHAYPFTFEIPPNLPSSVTLQPGPEDTGKALGVDYEVKAFVAENLEEKIHKRNSVRLVIRKVQYAPERPGPQPTAETTRQFLMSDKPLHLEASLDKEIYYHGEPISVNVHVTNNTNKTVKKIKISVRQYADIVLFNTAQYKVPVAMEEADDTVAPSSTFSKVYTLTPFLANNREKRGLALDGKLKHEDTNLASSTLLREGANREILGIIVSYKVKVKLVVSRGGLLGDLASSDVAVELPFTLMHPKPKEEPPHREVPENETPVDTNLIELDTNDDDAAAEDFARQRLKGMKDDKEEEEDGTGSPQLNNR
notes: residues left after HRV 3C cleavage (so in the source); human β-arrestin-1, cysteine-free, 3A mutant; Used in the NMR experiments, unlabelled or [U-15N,13C,2H]-labelled; also called hβArr1-3A; βArr-3A; source: E. coli BL21(DE3), purified (Ni-NTA, HRV 3C cleavage, HiTrap Q, SEC); not shown: His6, N-terminal, cleaved; Protein C tag, N-terminal, cleaved
As for B1, the binding result is reported as “binds”.
